Measurements from paper PMC5818064.

Target: RBD–GFP11 (Rho-binding domain of Rhotekin fused to GFP β-strand 11) (UniProt Q8C6B2)
Test: split reporter (BiFC, NanoBiT); tripartite split-GFP; HEK_GFP1-9 cells stably expressing GFP1-9, transiently co-transfected with GFP10 and GFP11 fusions (1:1); fixed, double immunostaining with anti-GFP10 and anti-GFP11; flow cytometry, mean GFP fluorescence in the GFP10+ GFP11+ gate

Chain of UniProt Q8C6B2 (Q8C6B2 whole entry, the tested form may be a part): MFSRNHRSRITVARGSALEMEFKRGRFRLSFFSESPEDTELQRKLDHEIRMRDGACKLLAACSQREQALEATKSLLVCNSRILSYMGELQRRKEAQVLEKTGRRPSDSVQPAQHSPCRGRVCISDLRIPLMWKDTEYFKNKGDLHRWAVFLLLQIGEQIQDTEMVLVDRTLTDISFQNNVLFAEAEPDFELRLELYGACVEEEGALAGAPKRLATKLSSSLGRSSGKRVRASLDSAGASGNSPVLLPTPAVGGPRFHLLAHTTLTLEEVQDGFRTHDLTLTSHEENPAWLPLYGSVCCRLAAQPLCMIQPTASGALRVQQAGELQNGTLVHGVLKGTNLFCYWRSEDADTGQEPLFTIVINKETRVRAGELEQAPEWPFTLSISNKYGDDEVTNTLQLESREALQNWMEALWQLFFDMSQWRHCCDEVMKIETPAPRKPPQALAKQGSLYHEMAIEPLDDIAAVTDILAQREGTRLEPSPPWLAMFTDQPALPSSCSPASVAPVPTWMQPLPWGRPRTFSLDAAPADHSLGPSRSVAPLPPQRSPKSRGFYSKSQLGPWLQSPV

| fold change of mean GFP fluorescence against the dominant-negative mutant [fold] | Substance |
| --- | --- |
| 5 | GFP10–RhoA L63 (constitutively active RhoA mutant fused to GFP β-strand 10) (from UniProt P61586 1-193) (natural protein) |
| 5 | GFP10–RhoB L63 (constitutively active RhoB mutant fused to GFP β-strand 10) (from UniProt P62745 1-196) (natural protein) |
